# Experimental data from the FLAb antibody collection (doi:10.1101/2023.12.08.570889).
# Target: TSLP, Q969D9
# Test: Kd (SPR)
row,Kd,Binder
1,22.6 nM,unnamed (protein) chain 1: QMQLVESGGGVVQPGRSLRLSCAASGFTFRTYGMHWVRQAPGKGLEWVAVIWYDGSNKHYADSVKGRFTITRDNSKNTLNLQMNSLRAEDTAVYYCARAPRYYDYLEAFDVWGQGTMVTVSS chain 2: SYVLTQPPSVSVAPGQTARITCGGNNLGSKSVHWYQQKPGQAPVLVVYDDSDRPSWIPERFSGSNSGNTATLTISRGEAGDEADYYCQVWDSSSDHVVFGGGTKLTVL
2,186 nM,unnamed (protein) chain 1: QMQLVESGGGVVQPGRSLRLSCAASGFTFRTYGMHWVRQAPGKGLEWVAVIWYDGSNKHYADSVKGRFTITRDNSKNTLNLQMNSLRAEDTAVYYCARSPRYDDYYEAFDVWGQGTMVTVSS chain 2: SYVLTQPPSVSVAPGQTARITCGGNNLGSKSVHWYQQKPGQAPVLVVYDDSDRPSWIPERFSGSNSGNTATLTISRGEAGDEADYYCQVWDSSSDHVVFGGGTKLTVL
3,197 nM,unnamed (protein) chain 1: QMQLVESGGGVVQPGRSLRLSCAASGFTFRTYGMHWVRQAPGKGLEWVAVIWYDGSNKHYADSVKGRFTITRDNSKNTLNLQMNSLRAEDTAVYYCARSPRYDDYWEAFDVWGQGTMVTVSS chain 2: SYVLTQPPSVSVAPGQTARITCGGNNLGSKSVHWYQQKPGQAPVLVVYDDSDRPSWIPERFSGSNSGNTATLTISRGEAGDEADYYCQVWDSSSDHVVFGGGTKLTVL
4,31.9 nM,unnamed (protein) chain 1: QMQLVESGGGVVQPGRSLRLSCAASGFTFRTYGMHWVRQAPGKGLEWVAVIWYDGSNKHYADSVKGRFTITRDNSKNTLNLQMNSLRAEDTAVYYCARAPRYYEYLEAFDVWGQGTMVTVSS chain 2: SYVLTQPPSVSVAPGQTARITCGGNNLGSKSVHWYQQKPGQAPVLVVYDDSDRPSWIPERFSGSNSGNTATLTISRGEAGDEADYYCQVWDSSSDHVVFGGGTKLTVL
5,31 nM,unnamed (protein) chain 1: QMQLVESGGGVVQPGRSLRLSCAASGFTFRTYGMHWVRQAPGKGLEWVAVIWYDGSNKHYADSVKGRFTITRDNSKNTLNLQMNSLRAEDTAVYYCARAPRYYEAYEAFDVWGQGTMVTVSS chain 2: SYVLTQPPSVSVAPGQTARITCGGNNLGSKSVHWYQQKPGQAPVLVVYDDSDRPSWIPERFSGSNSGNTATLTISRGEAGDEADYYCQVWDSSSDHVVFGGGTKLTVL
6,718 nM,unnamed (protein) chain 1: QMQLVESGGGVVQPGRSLRLSCAASGFTFSTYAMHWVRQAPGKGLEWVAVIWYDGSNKHYADSVKGRFTITRDNSKNTLNLQMNSLRAEDTAVYYCARAPRYDDYWEAFDVWGQGTMVTVSS chain 2: SYVLTQPPSVSVAPGQTARITCGGNNLGSKSVHWYQQKPGQAPVLVVYDDSDRPSWIPERFSGSNSGNTATLTISRGEAGDEADYYCQVWDSSSDHVVFGGGTKLTVL
7,163 nM,unnamed (protein) chain 1: QMQLVESGGGVVQPGRSLRLSCAASGFTFRTYGMHWVRQAPGKGLEWVAVIWYDGSNKHYADSVKGRFTITRDNSKNTLNLQMNSLRAEDTAVYYCARAPRYDDYYDAFDVWGQGTMVTVSS chain 2: SYVLTQPPSVSVAPGQTARITCGGNNLGSKSVHWYQQKPGQAPVLVVYDDSDRPSWIPERFSGSNSGNTATLTISRGEAGDEADYYCQVWDSSSDHVVFGGGTKLTVL
8,33.2 nM,unnamed (protein) chain 1: QMQLVESGGGVVQPGRSLRLSCAASGFTFRTYGMHWVRQAPGKGLEWVAVIWYDGSNKHYADSVKGRFTITRDNSKNTLNLQMNSLRAEDTAVYYCARAPRYYDYYEAFDVWGQGTMVTVSS chain 2: SYVLTQPPSVSVAPGQTARITCGGNNLGSKSVHWYQQKPGQAPVLVVYDDSDRPSWIPERFSGSNSGNTATLTISRGEAGDEADYYCQVWDSSSDHVVFGGGTKLTVL
9,141 nM,unnamed (protein) chain 1: QMQLVESGGGVVQPGRSLRLSCAASGFTFRTYGMHWVRQAPGKGLEWVAVIWYDGSNKHYADSVKGRFTITRDNSKNTLNLQMNSLRAEDTAVYYCARAPRYDETWEAFDVWGQGTMVTVSS chain 2: SYVLTQPPSVSVAPGQTARITCGGNNLGSKSVHWYQQKPGQAPVLVVYDDSDRPSWIPERFSGSNSGNTATLTISRGEAGDEADYYCQVWDSSSDHVVFGGGTKLTVL
10,175 nM,unnamed (protein) chain 1: QMQLVESGGGVVQPGRSLRLSCAASGFTFRTYGMHWVRQAPGKGLEWVAVIWYDGSNKHYADSVKGRFTITRDNSKNTLNLQMNSLRAEDTAVYYCARAPRYDYYWEAFDVWGQGTMVTVSS chain 2: SYVLTQPPSVSVAPGQTARITCGGNNLGSKSVHWYQQKPGQAPVLVVYDDSDRPSWIPERFSGSNSGNTATLTISRGEAGDEADYYCQVWDSSSDHVVFGGGTKLTVL
11,54.2 nM,unnamed (protein) chain 1: QMQLVESGGGVVQPGRSLRLSCAASGFTFRTYGMHWVRQAPGKGLEWVAVIWYDGSNKHYADSVKGRFTITRDNSKNTLNLQMNSLRAEDTAVYYCARAPRYDWYVEAFDVWGQGTMVTVSS chain 2: SYVLTQPPSVSVAPGQTARITCGGNNLGSKSVHWYQQKPGQAPVLVVYDDSDRPSWIPERFSGSNSGNTATLTISRGEAGDEADYYCQVWDSSSDHVVFGGGTKLTVL
12,78.9 nM,unnamed (protein) chain 1: QMQLVESGGGVVQPGRSLRLSCAASGFTFRTYGMHWVRQAPGKGLEWVAVIWYDGSNKHYADSVKGRFTITRDNSKNTLNLQMNSLRAEDTAVYYCARAPRYDEEYEAFDVWGQGTMVTVSS chain 2: SYVLTQPPSVSVAPGQTARITCGGNNLGSKSVHWYQQKPGQAPVLVVYDDSDRPSWIPERFSGSNSGNTATLTISRGEAGDEADYYCQVWDSSSDHVVFGGGTKLTVL
13,52.3 nM,unnamed (protein) chain 1: QMQLVESGGGVVQPGRSLRLSCAASGFTFRTYGMHWVRQAPGKGLEWVAVIWYDGSNKHYADSVKGRFTITRDNSKNTLNLQMNSLRAEDTAVYYCARAPRYYYYYEAFDVWGQGTMVTVSS chain 2: SYVLTQPPSVSVAPGQTARITCGGNNLGSKSVHWYQQKPGQAPVLVVYDDSDRPSWIPERFSGSNSGNTATLTISRGEAGDEADYYCQVWDSSSDHVVFGGGTKLTVL
14,44.6 nM,unnamed (protein) chain 1: QMQLVESGGGVVQPGRSLRLSCAASGFTFRTYGMHWVRQAPGKGLEWVAVIWYDGSNKHYADSVKGRFTITRDNSKNTLNLQMNSLRAEDTAVYYCARAPRYDDYVEAFDVWGQGTMVTVSS chain 2: SYVLTQPPSVSVAPGQTARITCGGNNLGSKSVHWYQQKPGQAPVLVVYDDSDRPSWIPERFSGSNSGNTATLTISRGEAGDEADYYCQVWDSSSDHVVFGGGTKLTVL
15,129 nM,unnamed (protein) chain 1: QMQLVESGGGVVQPGRSLRLSCAASGFTFRTYGMHWVRQAPGKGLEWVAVIWYDGSNKHYADSVKGRFTITRDNSKNTLNLQMNSLRAEDTAVYYCARAPRYDEYLEAFDVWGQGTMVTVSS chain 2: SYVLTQPPSVSVAPGQTARITCGGNNLGSKSVHWYQQKPGQAPVLVVYDDSDRPSWIPERFSGSNSGNTATLTISRGEAGDEADYYCQVWDSSSDHVVFGGGTKLTVL
16,170 nM,unnamed (protein) chain 1: QMQLVESGGGVVQPGRSLRLSCAASGFTFRTYGMHWVRQAPGKGLEWVAVIWYDGSNKHYADSVKGRFTITRDNSKNTLNLQMNSLRAEDTAVYYCARAPRYDEHWEAFDVWGQGTMVTVSS chain 2: SYVLTQPPSVSVAPGQTARITCGGNNLGSKSVHWYQQKPGQAPVLVVYDDSDRPSWIPERFSGSNSGNTATLTISRGEAGDEADYYCQVWDSSSDHVVFGGGTKLTVL
17,48.2 nM,unnamed (protein) chain 1: QMQLVESGGGVVQPGRSLRLSCAASGFTFRTYGMHWVRQAPGKGLEWVAVIWYDGSNKHYADSVKGRFTITRDNSKNTLNLQMNSLRAEDTAVYYCARAPRYDWYYEAFDVWGQGTMVTVSS chain 2: SYVLTQPPSVSVAPGQTARITCGGNNLGSKSVHWYQQKPGQAPVLVVYDDSDRPSWIPERFSGSNSGNTATLTISRGEAGDEADYYCQVWDSSSDHVVFGGGTKLTVL
18,33.5 nM,unnamed (protein) chain 1: QMQLVESGGGVVQPGRSLRLSCAASGFTFRTYGMHWVRQAPGKGLEWVAVIWYDGSNKHYADSVKGRFTITRDNSKNTLNLQMNSLRAEDTAVYYCARAPRYYDAYEAFDVWGQGTMVTVSS chain 2: SYVLTQPPSVSVAPGQTARITCGGNNLGSKSVHWYQQKPGQAPVLVVYDDSDRPSWIPERFSGSNSGNTATLTISRGEAGDEADYYCQVWDSSSDHVVFGGGTKLTVL
19,61.1 nM,unnamed (protein) chain 1: QMQLVESGGGVVQPGRSLRLSCAASGFTFRTYGMHWVRQAPGKGLEWVAVIWYDGSNKHYADSVKGRFTITRDNSKNTLNLQMNSLRAEDTAVYYCARAPRYDDLWEAFDVWGQGTMVTVSS chain 2: SYVLTQPPSVSVAPGQTARITCGGNNLGSKSVHWYQQKPGQAPVLVVYDDSDRPSWIPERFSGSNSGNTATLTISRGEAGDEADYYCQVWDSSSDHVVFGGGTKLTVL
